# Assay results reported in article PMC8940892.
# Molecular target: small capsid protein (SCP, VP26) of pseudorabies virus (pseudorabies virus (PRV), Bartha strain)
# Experiment: cryo-EM structure
substance,measurement,value
"small capsid protein (SCP, VP26) of pseudorabies virus (natural protein)",stoichiometry N,6
